Consider 28 molecules from patent publication US20060008846A1 (RESEARCH DEVELOPMENT FOUNDATION, published 2006).

The target in this assay is T1, ALK4 (activin type I receptor) (UniProt P36896).
T1 sequence (looked up): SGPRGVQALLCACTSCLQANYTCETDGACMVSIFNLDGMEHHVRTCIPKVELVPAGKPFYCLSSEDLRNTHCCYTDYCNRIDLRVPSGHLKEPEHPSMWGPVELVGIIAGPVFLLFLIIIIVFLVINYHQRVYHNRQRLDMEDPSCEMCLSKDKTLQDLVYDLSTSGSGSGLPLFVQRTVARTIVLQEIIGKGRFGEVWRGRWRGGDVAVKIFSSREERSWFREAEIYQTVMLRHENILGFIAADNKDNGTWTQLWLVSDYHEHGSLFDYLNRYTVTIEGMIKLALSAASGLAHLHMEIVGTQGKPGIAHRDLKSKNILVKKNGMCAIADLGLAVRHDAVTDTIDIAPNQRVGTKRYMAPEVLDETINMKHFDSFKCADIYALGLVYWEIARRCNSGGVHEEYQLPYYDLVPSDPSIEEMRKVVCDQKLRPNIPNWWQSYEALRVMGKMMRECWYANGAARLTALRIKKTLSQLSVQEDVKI
In words: cell-based or functional assay.

B1: activin-A S57A (ligand, human, UniProt P08476 311-426, looked up)
chain: GLECDGKVNICCKKQFFVSFKDIGWNDWIIAPSGYHANYCEGECPSHIAGTSGSSLAFHSTVINHYRMRGHSPFANLKSCCVPTKLRPMSMLYYDDGQNIIKKDIQNMIVEECGCS
In turn, B1 yielded a % Activin Activity (A3-luciferase assay in 293T cells) (% of wild type activin-A) of 101.

B2: activin-A S90A (ligand, human, UniProt P08476 311-426, looked up)
chain: GLECDGKVNICCKKQFFVSFKDIGWNDWIIAPSGYHANYCEGECPSHIAGTSGSSLSFHSTVINHYRMRGHSPFANLKSCCVPTKLRPMAMLYYDDGQNIIKKDIQNMIVEECGCS
In turn, B2 had a % Activin Activity (A3-luciferase assay in 293T cells) (% of wild type activin-A) of 59.

B3: activin-A A49G (ligand, human, UniProt P08476 311-426, looked up)
chain: GLECDGKVNICCKKQFFVSFKDIGWNDWIIAPSGYHANYCEGECPSHIGGTSGSSLSFHSTVINHYRMRGHSPFANLKSCCVPTKLRPMSMLYYDDGQNIIKKDIQNMIVEECGCS
Molecule B3 showed a % Activin Activity (A3-luciferase assay in 293T cells) (% of wild type activin-A) of 82.

B4: A/C-2.2 chimeric activin A/activin C protein (ligand, human, UniProt P08476 311-426, looked up)
chain: GLECDGKVNICCKKQFFVSFKDIGWNDWIIAPSGYHANYCEGECPSHIAGTSGSSLSFHSTVLNLLKMRGHSPFANLKSCCVPTKLRPMSMLYYDDGQNIIKKDIQNMIVEECGCS
Take B4: the % Activin Activity (A3-luciferase assay in 293T cells) (% of wild type activin-A) amounted to 107.

B5: activin-A T61P (ligand, human, UniProt P08476 311-426, looked up)
chain: GLECDGKVNICCKKQFFVSFKDIGWNDWIIAPSGYHANYCEGECPSHIAGTSGSSLSFHSPVINHYRMRGHSPFANLKSCCVPTKLRPMSMLYYDDGQNIIKKDIQNMIVEECGCS
In turn, B5 registered a % Activin Activity (A3-luciferase assay in 293T cells) (% of wild type activin-A) of 78.

B6: activin-A A31Q (ligand, human, UniProt P08476 311-426, looked up)
chain: GLECDGKVNICCKKQFFVSFKDIGWNDWIIQPSGYHANYCEGECPSHIAGTSGSSLSFHSTVINHYRMRGHSPFANLKSCCVPTKLRPMSMLYYDDGQNIIKKDIQNMIVEECGCS
B6 showed a % Activin Activity (A3-luciferase assay in 293T cells) (% of wild type activin-A) of 84.

B7: activin-A V62A/I63A (ligand, human, UniProt P08476 311-426, looked up)
chain: GLECDGKVNICCKKQFFVSFKDIGWNDWIIAPSGYHANYCEGECPSHIAGTSGSSLSFHSTAANHYRMRGHSPFANLKSCCVPTKLRPMSMLYYDDGQNIIKKDIQNMIVEECGCS
The molecule B7 came in with a % Activin Activity (A3-luciferase assay in 293T cells) (% of wild type activin-A) of 83.

B8: activin-A H65A/M68A (ligand, human, UniProt P08476 311-426, looked up)
chain: GLECDGKVNICCKKQFFVSFKDIGWNDWIIAPSGYHANYCEGECPSHIAGTSGSSLSFHSTVINAYRARGHSPFANLKSCCVPTKLRPMSMLYYDDGQNIIKKDIQNMIVEECGCS
The molecule B8 displayed a % Activin Activity (A3-luciferase assay in 293T cells) (% of wild type activin-A) of 82.

B9: A/C-1 chimeric activin A/activin C protein (ligand, human, UniProt P08476 311-426, looked up)
chain: GLECDGKVNICCKKQFFVSFKDIGWNDWIIAPSGYHANYCEGECPLHIAGMPGIAASFHSTVINHYRMRGHSPFANLKSCCVPTKLRPMSMLYYDDGQNIIKKDIQNMIVEECGCS
Consider B9, for which the % Activin Activity (A3-luciferase assay in 293T cells) (% of wild type activin-A) was found to be 104.

B10: activin-A S52A/G53A/S54A (ligand, human, UniProt P08476 311-426, looked up)
chain: GLECDGKVNICCKKQFFVSFKDIGWNDWIIAPSGYHANYCEGECPSHIAGTAAASLSFHSTVINHYRMRGHSPFANLKSCCVPTKLRPMSMLYYDDGQNIIKKDIQNMIVEECGCS
Molecule B10 yielded a % Activin Activity (A3-luciferase assay in 293T cells) (% of wild type activin-A) of 99.

B11: activin-A S55A/L56A (ligand, human, UniProt P08476 311-426, looked up)
chain: GLECDGKVNICCKKQFFVSFKDIGWNDWIIAPSGYHANYCEGECPSHIAGTSGSAASFHSTVINHYRMRGHSPFANLKSCCVPTKLRPMSMLYYDDGQNIIKKDIQNMIVEECGCS
The molecule B11 gave a % Activin Activity (A3-luciferase assay in 293T cells) (% of wild type activin-A) of 101.

B12: A/C-2.1 chimeric activin A/activin C protein (ligand, human, UniProt P08476 311-426, looked up)
chain: GLECDGKVNICCKKQFFVSFKDIGWNDWIIAPSGYHANYCEGECPSHIAGTSGSSLSFHTAVLNHYRMRGHSPFANLKSCCVPTKLRPMSMLYYDDGQNIIKKDIQNMIVEECGCS
In turn, B12 yielded a % Activin Activity (A3-luciferase assay in 293T cells) (% of wild type activin-A) of 81.

B13: activin-A S57P (ligand, human, UniProt P08476 311-426, looked up)
chain: GLECDGKVNICCKKQFFVSFKDIGWNDWIIAPSGYHANYCEGECPSHIAGTSGSSLPFHSTVINHYRMRGHSPFANLKSCCVPTKLRPMSMLYYDDGQNIIKKDIQNMIVEECGCS
For the molecule B13, the % Activin Activity (A3-luciferase assay in 293T cells) (% of wild type activin-A) worked out at 83.

B14: activin-A W25A (ligand, human, UniProt P08476 311-426, looked up)
chain: GLECDGKVNICCKKQFFVSFKDIGANDWIIAPSGYHANYCEGECPSHIAGTSGSSLSFHSTVINHYRMRGHSPFANLKSCCVPTKLRPMSMLYYDDGQNIIKKDIQNMIVEECGCS
With B14, the % Activin Activity (A3-luciferase assay in 293T cells) (% of wild type activin-A) turned out to be 73.

B15: activin-A L92A (ligand, human, UniProt P08476 311-426, looked up)
chain: GLECDGKVNICCKKQFFVSFKDIGWNDWIIAPSGYHANYCEGECPSHIAGTSGSSLSFHSTVINHYRMRGHSPFANLKSCCVPTKLRPMSMAYYDDGQNIIKKDIQNMIVEECGCS
In turn, B15 gave a % Activin Activity (A3-luciferase assay in 293T cells) (% of wild type activin-A) of 35.

B16: A/C-2.4 chimeric activin A/activin C protein (ligand, human, UniProt P08476 311-426, looked up)
chain: GLECDGKVNICCKKQFFVSFKDIGWNDWIIAPSGYHANYCEGECPSHIAGTSGSSLSFHSTVINHYRANTAAPFANLKSCCVPTKLRPMSMLYYDDGQNIIKKDIQNMIVEECGCS
Molecule B16 yielded a % Activin Activity (A3-luciferase assay in 293T cells) (% of wild type activin-A) of 79.

B17: activin-A G50A/T51A (ligand, human, UniProt P08476 311-426, looked up)
chain: GLECDGKVNICCKKQFFVSFKDIGWNDWIIAPSGYHANYCEGECPSHIAAASGSSLSFHSTVINHYRMRGHSPFANLKSCCVPTKLRPMSMLYYDDGQNIIKKDIQNMIVEECGCS
B17 yielded a % Activin Activity (A3-luciferase assay in 293T cells) (% of wild type activin-A) of 83.

B18: activin-A I105A (ligand, human, UniProt P08476 311-426, looked up)
chain: GLECDGKVNICCKKQFFVSFKDIGWNDWIIAPSGYHANYCEGECPSHIAGTSGSSLSFHSTVINHYRMRGHSPFANLKSCCVPTKLRPMSMLYYDDGQNIIKKDAQNMIVEECGCS
Take B18: the % Activin Activity (A3-luciferase assay in 293T cells) (% of wild type activin-A) was 86.

B19: activin-A S60A/T61A (ligand, human, UniProt P08476 311-426, looked up)
chain: GLECDGKVNICCKKQFFVSFKDIGWNDWIIAPSGYHANYCEGECPSHIAGTSGSSLSFHAAVINHYRMRGHSPFANLKSCCVPTKLRPMSMLYYDDGQNIIKKDIQNMIVEECGCS
B19 came in with a % Activin Activity (A3-luciferase assay in 293T cells) (% of wild type activin-A) of 97.

B20: activin-A H59P (ligand, human, UniProt P08476 311-426, looked up)
chain: GLECDGKVNICCKKQFFVSFKDIGWNDWIIAPSGYHANYCEGECPSHIAGTSGSSLSFPSTVINHYRMRGHSPFANLKSCCVPTKLRPMSMLYYDDGQNIIKKDIQNMIVEECGCS
B20 registered a % Activin Activity (A3-luciferase assay in 293T cells) (% of wild type activin-A) of 85.

B21: activin-A P45A/S46A/H47A/I48A (ligand, human, UniProt P08476 311-426, looked up)
chain: GLECDGKVNICCKKQFFVSFKDIGWNDWIIAPSGYHANYCEGECAAAAAGTSGSSLSFHSTVINHYRMRGHSPFANLKSCCVPTKLRPMSMLYYDDGQNIIKKDIQNMIVEECGCS
For the molecule B21, the % Activin Activity (A3-luciferase assay in 293T cells) (% of wild type activin-A) was determined as 91.

B22: activin-A F58A/H59A (ligand, human, UniProt P08476 311-426, looked up)
chain: GLECDGKVNICCKKQFFVSFKDIGWNDWIIAPSGYHANYCEGECPSHIAGTSGSSLSAASTVINHYRMRGHSPFANLKSCCVPTKLRPMSMLYYDDGQNIIKKDIQNMIVEECGCS
Regarding B22, the % Activin Activity (A3-luciferase assay in 293T cells) (% of wild type activin-A) came to 126.

B23: activin-A Y35A (ligand, human, UniProt P08476 311-426, looked up)
chain: GLECDGKVNICCKKQFFVSFKDIGWNDWIIAPSGAHANYCEGECPSHIAGTSGSSLSFHSTVINHYRMRGHSPFANLKSCCVPTKLRPMSMLYYDDGQNIIKKDIQNMIVEECGCS
Take B23: the % Activin Activity (A3-luciferase assay in 293T cells) (% of wild type activin-A) is 101.

B24: A/C-2.3 chimeric activin A/activin C protein (ligand, human, UniProt P08476 311-426, looked up)
chain: GLECDGKVNICCKKQFFVSFKDIGWNDWIIAPSGYHANYCEGECPSHIAGTSGSSLSFHSTVINHLKANTHSPFANLKSCCVPTKLRPMSMLYYDDGQNIIKKDIQNMIVEECGCS
On to B24, for which the % Activin Activity (A3-luciferase assay in 293T cells) (% of wild type activin-A) stood at 87.

B25: activin-A M91A (ligand, human, UniProt P08476 311-426, looked up)
chain: GLECDGKVNICCKKQFFVSFKDIGWNDWIIAPSGYHANYCEGECPSHIAGTSGSSLSFHSTVINHYRMRGHSPFANLKSCCVPTKLRPMSALYYDDGQNIIKKDIQNMIVEECGCS
For B25, the % Activin Activity (A3-luciferase assay in 293T cells) (% of wild type activin-A) stood at 74.

B26: activin-A N76A/L77A/K78A/S79A (ligand, human, UniProt P08476 311-426, looked up)
chain: GLECDGKVNICCKKQFFVSFKDIGWNDWIIAPSGYHANYCEGECPSHIAGTSGSSLSFHSTVINHYRMRGHSPFAAAAACCVPTKLRPMSMLYYDDGQNIIKKDIQNMIVEECGCS
B26: the % Activin Activity (A3-luciferase assay in 293T cells) (% of wild type activin-A) came to 82.

B27: activin-A R69A/G70A/H71A (ligand, human, UniProt P08476 311-426, looked up)
chain: GLECDGKVNICCKKQFFVSFKDIGWNDWIIAPSGYHANYCEGECPSHIAGTSGSSLSFHSTVINHYRMAAASPFANLKSCCVPTKLRPMSMLYYDDGQNIIKKDIQNMIVEECGCS
In turn, B27 showed a % Activin Activity (A3-luciferase assay in 293T cells) (% of wild type activin-A) of 82.

B28: activin-A V62P (ligand, human, UniProt P08476 311-426, looked up)
chain: GLECDGKVNICCKKQFFVSFKDIGWNDWIIAPSGYHANYCEGECPSHIAGTSGSSLSFHSTPINHYRMRGHSPFANLKSCCVPTKLRPMSMLYYDDGQNIIKKDIQNMIVEECGCS
In turn, B28 came in with a % Activin Activity (A3-luciferase assay in 293T cells) (% of wild type activin-A) of 64.
